How the values were obtained:
[1] = test system: spinal cord injury rats; assay: Spinal cord injury (dorsal hemisection T6/T7), intrathecal mini-osmotic pump; format: in vivo, rat
Experimental: Spinal cord injury was induced in adult female Long Evans rats (190-210 g; Charles River). A dorsal hemisection was performed at T6/T7, completely interrupting the main dorsomedial and the minor dorsolateral corticospinal tract (CST) components. The cord was sterotaxically transected at a depth of 1.8 mm from the surface using a microscalpel. […] Postoperative care comprised analgesia (Buprenorphine/Buprenex, Reckitt Benckiset Healthcare Ltd., 0.05 mg/kg subcutaneously) every 8-12 hours for 3 days and antibiotic treatment (ampicillin, Bristol Myers Squibb, 100 mg/kg subcutaneously twice daily) for 7 days after surgery. Bladders were expressed manually twice a day for the duration of the study (4 weeks) or until return of function. On completion of the study, rats were anesthetized and trans-cardially perfused with heparinized saline followed by 4% paraformaldehyde (PFA). The spinal cords were removed, embedded in paraffin, and 10 μm sections were cut from for histological analysis.
To quantify apoptotic cell death after SCI, animals were euthanized 3 or 7 days after SCI and stained using anti-activated-Caspase-3 antibody (Cell Signaling Technologies) and TUNEL staining (Promega). The sections were also stained with anti-NeuN antibody (Chemicon) and anti-CC1 antibody (Calbiochem) to identify neurons and oligodendrocytes, respectively.

[2] = test system: A2B5+ oligodendrocytes; assay: Differentiation of A2B5+ oligodendrocytes treated with Sp35-Fc (O4 staining); format: cell-based, rat; conditions: increasing concentrations, versus control-Fc, FIG. 8
Experimental: Enriched populations of oligodendrocytes were grown from female Long Evans P2 rats as described by Conn, Meth. Neurosci. 2:1-4 (Academic Press; 1990) with modifications as follows. Briefly, the forebrain was dissected and placed in Hank's buffered salt solution (HBSS; Invitrogen). The tissue was cut into 1-mm fragments and was incubated at 37° C. for 15 min in 0.01% trypsin and 10 μg/ml DNase. Dissociated cells were plated on poly-L-lysine-coated T75 tissue culture flasks and were grown at 37° C. for 10 d in DMEM medium with 20% fetal calf serum (Invitrogen). Oligodendrocyte precursors (A2B5+) were collected by shaking the flask overnight at 200 rpm at 37° C., resulting in a 95% pure population. […] These differentiation states are readily apparent from changes in morphology: A2B5^+ cells are bipolar in shape, O4^+ premyelinating oligodendrocytes have longer and more branched processes and MBP^+ mature oligodendrocytes contain myelin sheet structures between processes.
A2B5^+ oligodendrocytes, prepared as described in Example 1, were treated with increasing concentrations of Sp35-Fc or control-Fc for 3 days (Sp35-Fc was prepared as described in Example 2). […] After 48 h (72 h for RNAi), cultures were stained with antibody to O4, and the number of total O4+ and mature O4+ oligodendrocytes was quantified. Samples were analyzed in duplicate. […]

[3] = test system: cuprizone-treated mice; assay: Cuprizone demyelination model, stereotactic injection into corpus callosum; format: in vivo; conditions: injected into corpus callosum at 2, 2.5 and 3 weeks of cuprizone feeding
Source text: Adult wild-type C57Bl/6 male mice were fed cuprizone (0.2% milled with ground mouse chow by weight) for 6 weeks to induce demyelination within the corpus callosum. Sp35-Fc was stereotactically injected into the demyelinating corpus callosum at 2, 2.5, and 3 weeks of cuprizone feeding. Control mice were stereotactically injected at the same intervals with sterilized media containing no Sp35-Fc. After 6 weeks of cuprizone feeding, the mice were returned to a normal diet for 2, 4 and 6 weeks (ground mouse chow only) to allow remyelination.
The cuprizone-treated mice were anesthetized with ketamine (80 mg/kg body weight) and xylazine (10 mg/kg body weight) and positioned in an immobilization apparatus designed for stereotactic surgery (David Kopf Instruments). The scalp was opened and the sterile compounds injected (1 μM in […] of HBSS) unilaterally into the acutely demyelinated corpus callosum of the wild-type recipient mice with a […] Hamilton syringe using stereotactic coordinates of 0.7 mm posterior and 0.3 mm lateral to bregma at a depth of 1.7 mm (Messier et al., Pharmacol. Biochem. Behav. 63(2): 313-18 (1999)). Additionally, control recipient mice were stereotactically injected with HBSS containing no compounds. The opening in the skull was filled with Gelfoam, and the area was swabbed with penicillin and streptomycin (Gibco) and the wound was sutured. […]

[4] = test system: mature oligodendrocytes; assay: Survival and MBP expression of mature oligodendrocyte cultures treated with Sp35-Fc; format: cell-based, rat; conditions: 10 μg/ml for 5 days
Experimental: Mature oligodendrocytes have a half-life in vitro of about 48 to 72 hours, with cells typically undergoing apoptosis after 72 hours. […] MBP expression was monitored as a marker for mature ologodendrocytes.

B1: Sp35-Fc: extra-cellular portion of human Sp35 (residues 1-532) fused to the hinge and Fc region of human IgG1 (protein)
chain: TGCPPRCECSAQDRAVLCHRKRFVAVPEGIPTETRLLDLGKNRIKTLNQDEFASFPHLEELELNENIVSAVEPGAFNNLFNLRTLGLRSNRLKLIPLGVFTGLSNLTKLDISENKIVILLDYMFQDLYNLKSLEVGDNDLVYISHRAFSGLNSLEQLTLEKCNLTSIPTEALSHLHGLIVLRLRHLNINAIRDYSFKRLYRLKVLEISHWPYLDTMTPNCLYGLNLTSLSITHCNLTAVPYLAVRHLVYLRFLNLSYNPISTIEGSMLHELLRLQEIQLVGGQLAVVEPYAFRGLNYLRVLNVSGNQLTTLEESVFHSVGNLETLILDSNPLACDCRLLWVFRRRWRLNFNRQQPTCATPEFVQGKEFKDFPDVLLPNYFTCRRARIRDRKAQQVFVDEGHTVQFVCRADGDPPPAILWLSPRKHLVSAKSNGRLTVFPDGTLEVRYAQVQDNGTYLCIAANAGGNDSMPAHLHVRSYSPDWPHQPNKTFAFISNQPGE
modifications: left off: a dimerising Fc or GST
notes: extra-cellular portion of human Sp35 (residues 1-532) fused to the hinge and Fc region of human IgG1
number of activated-Caspase-3-positive neurons and oligodendrocytes versus controls ([1]; 3 days after SCI, 0.25 μl/h of 25 μM intrathecal): significantly smaller | neuron and oligodendrocyte survival around the lesion site (anti-βIII-tubulin, anti-O4) ([1]; four weeks after SCI): more neurons and oligodendrocytes survived | differentiation of A2B5+ cells into O4+ cells [2]: promoted differentiation of A2B5^+ cells into O4^+ cells in a concentration dependent manner | differentiation of A2B5+ cells into O4+ cells ([2]; listed as LINGO-1-Fc): Dose-dependent differentiation | axon myelination by IHC (anti-MBP antibody or luxol fast blue) [3]: increased | mature oligodendrocyte survival (CC1 antibody staining) ([3]; FIG. 12): increased mature oligodendrocyte survival | increase in MBP protein expression (cell staining and Western blot) ([4]; compared to control-Fc treated cells): approximately 3 fold | survival rate for mature oligodendrocytes (cell viability staining) ([4]; versus control-Fc): significantly increased survival rate

From patent publication US8486893B2, “Treatment of conditions involving demyelination” (Biogen Idec MA Inc., priority 2004, dated 2013)
